73 sequences from the supplement of paper PMC10567573 can be followed below.

This data set is described as follows: protein stability index of a GFP-peptide fusion (GPS, HEK-293T) (PSI 1-6); higher = more stable. The conditions noted are these: c terminus: a fixed tail appended.

± gives the standard deviation.
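Also: 24-mer peptide tiles fused after GFP, lentivirally expressed, FACS-sorted into six equal bins by GFP/DsRed ratio, decoded by Illumina sequencing, PSI is the read-weighted mean bin number.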

For NSNQATDIMETSGWKSMIQSHPHL [SPOPL], the protein stability index is, setting by setting: (treatment: DMSO) 3.34 ± 0.22; (treatment: MLN4924 1 uM, 8 h) 3.48 ± 0.21. For SHRPNQHNTVKLGAFQAQEKELVF [PRIM1], in that order: 3.06 ± 0.62 and 3.25 ± 0.37. In the same order, the values of SVNWRTGSFHGPGHISLRRENSSD [DLC1] are 3.78 ± 0.21 and 3.86 ± 0.2. In the same order, the values of DRIRFTVNRRISIVGFGLYGSIHG [BTBD1] are 2.25 ± 0.61 and 2.32 ± 1.2. With KQQIANLDKQAKLSRAYDGTTYLP [USP39], the protein stability index worked out at 3.62 ± 0.19 (treatment: DMSO) and 3.87 ± 0.41 (treatment: MLN4924 1 uM, 8 h). For VFSQMIHLNETVKAPDIECVLRCS [FEM1B], in that order: 2.13 ± 0.36 and 2.11 ± 0.35. In the same order, the values of ESNAAQYSPEALASIQNHVRKREA [EFHC1] are 4.87 ± 0.24 and 4.7 ± 0.27.

Regarding GHSLKNLEHRLNEMERTQAQLRDA [RASAL3], the protein stability index is 4.51 ± 0.24 (treatment: DMSO) and 4.58 ± 0.22 (treatment: MLN4924 1 uM, 8 h). On to GDEMTSLSEYVSRMKETQKSIYYI [HSP90AB1], for which the protein stability index (treatment: MLN4924 1 uM, 8 h) was determined as 2.81 ± 0.3. Turning to AAQSTKSPWNFLGDELYEQSDEEQ [CLPTM1], the protein stability index by setting is: (treatment: DMSO) 5.25 ± 0.19; (treatment: MLN4924 1 uM, 8 h) 5.35 ± 0.18.

Regarding SSSSSSSSSSSSSSSSGPGHGEPD [TMEM40], the protein stability index reads like this: (treatment: DMSO) 5.49 ± 0.36; (treatment: MLN4924 1 uM, 8 h) 5.4 ± 0.35. For LQRHADEFLLDLGHHERSIMTDLY [FUT8], in that order: 2.55 ± 0.21 and 2.69 ± 0.26. In the same order, the values of PPRSDTIANYELVYKDGEHGEEQR [PTPRD] are 5.48 ± 0.21 and 5.57 ± 0.14. Regarding DFCEPSFVTGNCLEISPDCSQYDR [PCMTD2], the protein stability index (treatment: DMSO) was 4.38 ± 0.32 and the protein stability index (treatment: MLN4924 1 uM, 8 h) was determined as 4.4 ± 0.22. For EVLVGKTIEQSLLEVMEEEELANL [RSPH3], in that order: 4.89 ± 0.3 and 4.91 ± 0.23. For PPLSHIMAQPLCIRALLNLHTDVG [NEK8], in that order: 2.21 ± 0.41 and 2.03 ± 0.13. For RGMATKLLARPGTGEHREFKLDKK [FBF1], in that order: 4.47 ± 0.33 and 4.62 ± 0.13.

Regarding PVPEQSALCQGLYFHINQTLREAH [FAM104A], the protein stability index amounted to 2.46 ± 0.21 (treatment: DMSO) and 2.77 ± 0.28 (treatment: MLN4924 1 uM, 8 h). In the same order, the values of ALVYLPGVIAAIVQLHNGTKYKKF [STEAP1] are 2.73 ± 0.44 and 2.75 ± 0.68. For EQRADPNAKAHCGATALHFAAEAG [FEM1B], in that order: 4.03 ± 0.18 and 3.98 ± 0.34.

Take VLYPVPLESYEDIHGTLHLERLAY [PRAME]: the protein stability index worked out at 2.31 ± 0.23 (treatment: DMSO) and 2.38 ± 0.36 (treatment: MLN4924 1 uM, 8 h).

As to LLFPEEEATNGREGLLRFSSWPFS [AUP1], the protein stability index was 2.58 ± 0.23 (treatment: DMSO) and 2.51 ± 0.21 (treatment: MLN4924 1 uM, 8 h).

Take KTSAALSTVGSAISRKLGDMRNSA [TPD52L2]: the protein stability index is 3.64 ± 0.29 (treatment: DMSO) and 3.7 ± 0.29 (treatment: MLN4924 1 uM, 8 h). For the sequence PPALLPLYFQWYIFYFVIQRKKWV [FADS1], the protein stability index came out at 2.68 ± 0.059 (treatment: DMSO) and 2.73 ± 1.6 (treatment: MLN4924 1 uM, 8 h).

As for HPDSPATGAHWMRQPVSFHRVKLT [TBX6], the protein stability index worked out at 3.16 ± 0.16 (treatment: DMSO) and 3.23 ± 0.32 (treatment: MLN4924 1 uM, 8 h). In the same order, the values of EEELIRIFQEQQKKWQQYRSVRRE [FAM9B] are 3.92 ± 0.33 and 4.07 ± 0.49. Regarding PAGVGVVVEATHMCMVMRGVQKMN [GCH1], the protein stability index reads like this: (treatment: DMSO) 2.41 ± 0.23; (treatment: MLN4924 1 uM, 8 h) 2.32 ± 0.34. In the same order, the values of QKFDTLYAILDEKKSELLQRITQE [TRIM63] are 3.11 ± 0.095 and 3.21 ± 0.29. For GQESEVPYKREEEALEERRLSRGE [PKD2L1], in that order: 5.39 ± 0.14 and 5.53 ± 0.15. For LTGVLCSYPNPNEDKCPGNYTNPL [TMEM192], in that order: 3.26 ± 0.19 and 3.36 ± 0.25. On to PGVAYPAFLGPDEAFALPDSLLVV [SPSB4], for which the protein stability index by setting is: (treatment: DMSO) 2.76 ± 0.49; (treatment: MLN4924 1 uM, 8 h) 2.21 ± 0.13. For VWDMRSGQCVQAFETHESDINSVR [GNB5], in that order: 3.48 ± 0.24 and 3.56 ± 0.15.

Consider LSLPYLPSGTPELEVPKPGQPSEP [CHIT1], for which the protein stability index was 5.09 ± 0.22 (treatment: DMSO) and 5.21 ± 0.15 (treatment: MLN4924 1 uM, 8 h). Consider ALTYACAGGYVDVVKVLLESGASI [ANKRD17], for which the protein stability index (treatment: DMSO) stood at 2.64 ± 0.33 and the protein stability index (treatment: MLN4924 1 uM, 8 h) was 2.79 ± 0.48. For PVEDSHTADISSHFQEAIDFIDCV [DUSP5], in that order: 4.54 ± 0.21 and 4.44 ± 0.32. In the same order, the values of EIFQKPFQTLMFLVRDWSFPYEYS [ATL3] are 2.73 ± 0.56 and 3.52 ± 0.089.

Take SKCKIIHTDIKPENILMCVDDAYV [SRPK2]: the protein stability index runs as follows: (treatment: DMSO) 2.39 ± 0.33; (treatment: MLN4924 1 uM, 8 h) 2.5 ± 0.17. For IEPLVPEEKMETKTESSGIETEPT [EPB41L3], in that order: 5.45 ± 0.31 and 5.46 ± 0.51. In the same order, the values of LLIDFAYTSQITVEEGNVQTLLPA [KLHL20] are 2.29 ± 0.5 and 1.94 ± 0.12. Consider FGGTGIPFGESNGNGVHVCNVKYK [KLHDC10], for which the protein stability index is, setting by setting: (treatment: DMSO) 2.52 ± 0.35; (treatment: MLN4924 1 uM, 8 h) 3.06 ± 0.51.

For PINYQGLRFSGVNDTDFRVYLLGN [POMT2], the protein stability index is, setting by setting: (treatment: DMSO) 2.27 ± 0.23; (treatment: MLN4924 1 uM, 8 h) 2.46 ± 0.14. For GLTLGRSFSNYRPFEPQALGLSPS [SEPHS2], in that order: 2.78 ± 0.36 and 2.81 ± 0.49.

On to LMDEGASSEKKRQSSADGSQPPKK [RBBP5], for which the protein stability index runs as follows: (treatment: DMSO) 5.56 ± 0.36; (treatment: MLN4924 1 uM, 8 h) 5.53 ± 0.24. For FLLKFLLVGDRDVGKSEILESLQD [RAB40A], in that order: 2.65 ± 0.43 and 2.9 ± 0.56.

With DTALLNLLPMLDALRFTADVRSVL [CTDNEP1], the protein stability index (treatment: DMSO) was determined as 2.78 ± 0.48 and the protein stability index (treatment: MLN4924 1 uM, 8 h) stood at 2.58 ± 0.42. Turning to IITVTLNMEKYNFLGISIVGQSNE [DVL3], the protein stability index by setting is: (treatment: DMSO) 3.15 ± 0.69; (treatment: MLN4924 1 uM, 8 h) 3.04 ± 0.4. As to LLGEIDLEKESDTPLQQVSIEEIL [LSM1], the protein stability index (treatment: DMSO) is 4.97 ± 0.16 and the protein stability index (treatment: MLN4924 1 uM, 8 h) was found to be 4.93 ± 0.27. For SRVTDAAFNFLLVWYYCTLTIRES [TMEM120A], in that order: 3 ± 0.1 and 2.62 ± 0.45. Regarding YYTTPIYRFRMKCHLCVNYIEMQT [YJU2B], the protein stability index stood at 2.73 ± 0.43 (treatment: DMSO) and 2.51 ± 0.64 (treatment: MLN4924 1 uM, 8 h). For DLSGRRLRDVNHEKAMAEWVKQQA [SDE2], in that order: 4.24 ± 0.2 and 4.13 ± 0.37. In the case of WGCSCCPPETKHQALSGTPKKGPA [TSPAN10], the protein stability index by setting is: (treatment: DMSO) 4.13 ± 0.41; (treatment: MLN4924 1 uM, 8 h) 4.44 ± 0.26.

For the sequence DPGQQFTWEHSNLEVNKPKNRYAN [PTPRD], the protein stability index came to 4.99 ± 0.39 (treatment: DMSO) and 4.98 ± 0.26 (treatment: MLN4924 1 uM, 8 h). On to VLAGAAEEGFMTAELAGVIKRLWK [GNAI1], for which the protein stability index by setting is: (treatment: DMSO) 2.38 ± 0.34; (treatment: MLN4924 1 uM, 8 h) 2.45 ± 0.057.

As to SFHSSGEKQKQPRWREGTKDSHDP [PBXIP1], the protein stability index reads like this: (treatment: DMSO) 5.08 ± 0.17; (treatment: MLN4924 1 uM, 8 h) 5.19 ± 0.24. For IDVSNPQTVGVGRGRFTTYEIRVK [SNX3], in that order: 2.56 ± 0.25 and 2.69 ± 0.35. For FTQPQQTSFALERNLRTQQEIEDK [C8orf76], in that order: 4.87 ± 0.37 and 4.9 ± 0.24.

For FYGETVADYFATFVQREEQLQFLI [CDS1], the protein stability index by setting is: (treatment: DMSO) 2.71 ± 0.79; (treatment: MLN4924 1 uM, 8 h) 2.43 ± 0.32. In the same order, the values of RPSLVIHLRIHTGEKPYKCTHCSK [ZNF449] are 2.51 ± 0.49 and 2.31 ± 0.54.

Take GGCTVGVAGEGVRRKGEMGLSAED [TRIM15]: the protein stability index by setting is: (treatment: DMSO) 4.98 ± 0.46; (treatment: MLN4924 1 uM, 8 h) 5.21 ± 0.37. For IGNPPVGPIGGMMPPQPGIPQQQG [ZNF207], in that order: 4.62 ± 0.28 and 4.53 ± 0.21.

As to SAGKRGPDRGSPEYRQRRERNNIA [CEBPD], the protein stability index by setting is: (treatment: DMSO) 4.61 ± 0.2; (treatment: MLN4924 1 uM, 8 h) 4.41 ± 0.039.

As for CKCSEGFVLAEDGRRCKKCTEGPI [MATN2], the protein stability index was determined as 4.99 ± 0.2 (treatment: DMSO) and 5.41 ± 0.081 (treatment: MLN4924 1 uM, 8 h). In the same order, the values of SCPGSSYRTVVRPTYKVMYKIVTA [EMID1] are 2.37 ± 0.53 and 2.22 ± 0.26. In the same order, the values of ILAVSFAPLIQPCHSESGKSRLVQ [PCMTD2] are 2.23 ± 0.59 and 1.93 ± 0.25. In the same order, the values of RIRAILSTYRKRTPVMEGYVEVKE [LOXL2] are 2.62 ± 0.35 and 2.67 ± 0.38. In the case of RQPRDELERVRVSCTIIFLASIFQ [TMEM175], the protein stability index is, setting by setting: (treatment: DMSO) 2.11 ± 0.15; (treatment: MLN4924 1 uM, 8 h) 2.17 ± 0.28. For KHSVLLSASRKSAEQLRIELNAEK [WEE1], in that order: 3.92 ± 0.32 and 4.16 ± 0.21.

As for PKQLRLINQPLPDLKNVKSKIGST [MAP2], the protein stability index by setting is: (treatment: DMSO) 3.9 ± 0.1; (treatment: MLN4924 1 uM, 8 h) 3.88 ± 0.19. In the same order, the values of ALWQVLARDCFATGRHYWEVDVQE [TRIM14] are 2.4 ± 0.65 and 2.4 ± 0.24. For SGGGRDSSSSILRWLPEKRANPCL [ELOA2], in that order: 3.11 ± 0.26 and 3.47 ± 0.17.

On to APLVKTLEKEEEKDLVMYSKCQRL [CDC25B], for which the protein stability index runs as follows: (treatment: DMSO) 4.69 ± 0.42; (treatment: MLN4924 1 uM, 8 h) 4.59 ± 0.052.

For LLQTEPQNNQAKELERLIDKAMKK [FIS1], the protein stability index was found to be 3.99 ± 0.19 (treatment: DMSO) and 4.27 ± 0.17 (treatment: MLN4924 1 uM, 8 h).

As for RERPLNVFCDMETDGGGWLVFQRR [TNXB], the protein stability index reads like this: (treatment: DMSO) 3 ± 0.98; (treatment: MLN4924 1 uM, 8 h) 2.79 ± 0.48.
